This note sets out measurements from publication PMC7984725 (Biochemistry, 2018).

This test deals with human linker histone H1.0 (human, UniProt P07305 1-194). Put plainly: ITC.

What is called Kd is the equilibrium constant for the complex coming apart. The low end stands for a tighter complex, the high end for a looser complex. The stoichiometry N is a count of units in the complex or per binding partner.

Sequence of human linker histone H1.0 (P07305 whole entry): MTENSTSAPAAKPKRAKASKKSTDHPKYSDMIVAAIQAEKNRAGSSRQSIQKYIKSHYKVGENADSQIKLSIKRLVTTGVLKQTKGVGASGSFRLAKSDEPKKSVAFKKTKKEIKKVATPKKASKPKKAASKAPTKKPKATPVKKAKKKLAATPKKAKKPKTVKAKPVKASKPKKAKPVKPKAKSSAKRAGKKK

B1: prothymosin-α (ProTα) (natural protein, UniProt P06454 1-111, looked up)
chain: MSDAAVDTSSEITTKDLKEKKEVVEEAENGRDAPANGNAENEENGEQEADNEVDEEEEEGGEEEEEEEEGDGEEEDGDEDEEAESATGKRAAEDDEDDDVDTKKQKTDEDD
With B1, binding was put at a Kd of 460 nM and the “stoichiometry N” value was 1.
